Data published in patent publication US20230151110A1 (HUTCHISON MEDIPHARMA, published 2023).
Positions count from the first letter of the chain named. Numbers in names are those of the source.

B1: Hu-125G4A4m-43 (antibody, V domains shown)
VH: QVQLVQSGAEVKKPGSSVKVSCKASGYTFTSYYMHWVRQAPGQGLEWMGYIDPANDYSDYNQNFKDRVTITADKSTRTTYMELTSLRSEDTAVYYCARLGYGQSSPFDYWGQGTTVTVSS
VL: DIQMTQSPSSLSASVGDRVTITCKASQDIHNYLSWFQQKPGKAPKSLIYRAKRLVEGVPSRFSGSGSGQDYTLTISSLQPEDFATYYCLQYDELYTFGQGTRLEIK
notes: Humanized antibody, IgG4 S228P (IgG4P) subtype
B2: humanized antibody HMA02h14-48 (antibody, V domains shown)
VH: B1 VH with V68A, I70L
VL: B1 VL with Q69T
notes: Humanized antibody, IgG4 S228P (IgG4P) subtype; also called Hu-125G4A4m-48; Hu-125G4A4-48
B3: Hu-125G4A4m-44 (antibody, V domains shown)
VH: B1 VH
VL: B1 VL with Q3K, S46T, S60L, Y87F
notes: as for B1
B4: Hu-125G4A4m-47 (antibody, V domains shown)
VH: B1 VH with T79A
VL: B1 VL with Q3K, S46T, S60L, Y87F
notes: as for B1
B5: Hu-125G4A4m-49 (antibody, V domains shown)
VH: B1 VH with V68A, I70L
VL: B1 VL
notes: as for B1
B6: Hu-125G4A4m-45 (antibody, V domains shown)
VH: B1 VH with T79A
VL: B1 VL with Q69T
notes: as for B1
B7: Hu-125G4A4m-46 (antibody, V domains shown)
VH: B1 VH with T79A
VL: B1 VL
notes: as for B1
B8: Hu-125G4A4m-50 (antibody, V domains shown)
VH: B1 VH with V68A, I70L
VL: B1 VL with Q3K, S46T, S60L, Y87F
notes: as for B1
B9: chimeric antibody Ch-125G4-m35 (antibody, V domains shown)
VH: QVQLQQSGTELAKPGASVKMSCKASGYTFTSYYMHWVKQRPGQILEWIGYIDPANDYSDYNQNFKDKATLTADKSSRTTYMQLTSLTSEDSAVYYCARLGYGQSSPFDYWGQGTTLIVSS
VL: DIKMTQSPSSMYASVGERVTITCKASQDIHNYLSWFQQKPGKSPKTLIYRAKRLVEGVPLRFSGSGSGQDYSLTISSLEYEDMGIYFCLQYDELYTFGGGTRLEIK
notes: Chimeric antibody with human IgG4 (S228P) heavy chain constant region and human kappa light chain constant region; PTM sites mutated (NSS to QSS in the heavy chain, DG to EG in the light chain); also called Ch-125G4m-m35; 125G4A4m
B10: hybridoma-derived antibody 125G4A4 (antibody, V domains shown)
VH: B9 VH with Q103N
VL: B9 VL with E56D
notes: Mouse antibody purified from hybridoma supernatant on Protein A
B11: control antibody Hu5F9 (antibody, V domains shown)
VH: QVQLVQSGAEVKKPGASVKVSCKASGYTFTNYNMHWVRQAPGQRLEWMGTIYPGNDDTSYNQKFKDRVTITADTSASTAYMELSSLRSEDTAVYYCARGGYRAMDYWGQGTLVTVSS
VL: DIVMTQSPLSLPVTPGEPASISCRSSQSIVYSNGNTYLGWYLQKPGQSPQLLIYKVSNRFSGVPDRFSGSGSGTDFTLKISRVEAEDVGVYYCFQGSHVPYTFGQGTKLEIK

How the values were obtained:
[1] = biological target: T1, human CD47 protein on the cell surface (human, UniProt Q08722 19-323); experiment: FACS on Raji cells (endogenous human CD47); negative control
T1 construct: whole, on cells; One molecule is used for overexpressed (CHO-K1) and endogenous (Raji, Toledo, REC-1, red blood cells) human CD47; the cell is named under assay; also called CD47 on the surface of Raji, Toledo, REC-1 cells; CD47 on the surface of human red blood cells

[2] = biological target: T1, human CD47 protein on the cell surface; experiment: FACS on Toledo cells (endogenous human CD47); negative control
[3] = biological target: CD47 on the surface of cynomolgus monkey B cells (cynomolgus monkey); experiment: FACS on cynomolgus monkey B cells, antibody 66.7 nM; negative control
[4] = biological target: T1, human CD47 protein on the cell surface; experiment: FACS on REC-1 cells (endogenous human CD47); negative control
[5] = biological target: T2, CD47 on the surface of cynomolgus monkey B cells (cynomolgus monkey, UniProt A0A5F8AK49 19-323 (rhesus entry)); experiment: FACS on cynomolgus monkey B cells, antibody 66.7 nM
T2 construct: whole, on cells; also called cynomolgus monkey CD47
Text: The cells were washed three times and analyzed by flow cytometry.

[6] = biological target: T1, human CD47 protein on the cell surface; experiment: FACS on human red blood cells (endogenous CD47)
Experimental: The cells were washed three times with PBS containing 2% fetal bovine serum (FBS), and then the fluorescence signal was detected by Canto II (BD Biosciences) flow cytometry. According to the average fluorescence intensity (MFI) of the signal, GraphPad was used for fitting a concentration dependent curve, and the EC₅₀ was calculated.

[7] = biological target: T1, human CD47 protein on the cell surface; experiment: FACS on Raji cells (endogenous human CD47)
Experimental: (§1) Human CD47 was endogenously expressed on the cell surface of human Burkitt lymphoma cell line Raji. […] The diluted antibodies were mixed with and co-incubated with Raji cells (purchased from ATCC) (5*10⁵ cells/well) at 4° C. for 1 hour. […] The cells were washed three times with PBS containing 2% fetal bovine serum (FBS), and then the fluorescence signal was detected by CantoII (BD Biosciences) flow cytometry, and according to the average fluorescence intensity (MFI) of the signal, GraphPad was used for fitting a concentration dependent curve, and the EC₅₀ was calculated.

[8] = biological target: T1, human CD47 protein on the cell surface; experiment: FACS on REC-1 cells (endogenous human CD47)
Experimental: as §1

[9] = biological target: T3, human CD47-His fusion protein (human, UniProt Q08722 19-139); experiment: SPR (Biacore T200): antibody captured by anti-human Fc on CM5, human CD47-His as analyte, 1:1 Langmuir fit
T3 construct: Bought reagent; also called ACROBiosystems Cat: CD7-H5227; not shown: His tag

[10] = biological target: T1, human CD47 protein on the cell surface; experiment: FACS on Toledo cells (endogenous human CD47)
Experimental: as §1

[11] = biological target: T4, recombinant protein hCD47-Fc containing the extracellular domain of human CD47 fused with the Fc fragment of … (human, UniProt Q08722 19-139); experiment: competition ELISA as in Example 1.3: hCD47-Fc coated, SIRPα-His as competitor ligand, anti-His-HRP
T4 construct: extracellular domain; Bought reagent; also called ACROBiosystems Cat: CD7-H5256; not shown: Fc fragment of human IgG

[12] = biological target: T1, human CD47 protein on the cell surface; experiment: FACS on CHO-K1 cells overexpressing human CD47
Experimental: A human CD47 protein (NCBI accession number: NP_001768.1) was overexpressed in hamster ovary cell line CHO-K1 to establish CHO-K1 cell line overexpressing the human CD47 protein. […] After washing twice with iced PBS, the cells were incubated with an iFluor647-labeled goat anti-mouse IgG (H+L) antibody (Genscript) at 4° C. in the dark for 40 minutes. The cells were washed twice with iced PBS, and then the fluorescence signal was detected by Calibur (BD Biosciences) flow cytometry, and according to the average fluorescence intensity (MFI) of the signal, GraphPad was used for fitting a concentration dependent curve, and the EC₅₀ was calculated.

[13] = biological target: T4, recombinant protein hCD47-Fc containing …; experiment: competition ELISA: hCD47-Fc coated, SIRPα-His 2.5 µg/ml as competitor ligand, anti-His-HRP
Experimental: The recombinant protein hCD47-Fc containing the extracellular domain of human CD47 fused with the Fc fragment of human IgG (ACROBiosystems, Cat: CD7-H5256) was coated onto a 96-well plate and incubated overnight at 4° C. After the plate was washed 3 times with PBST (PBS containing 0.5% Tween-20), PBST containing 1% BSA was added for blocking the plate for 2 hours. […] After the 96-well plate was incubated at 37° C. for 30 minutes, the plate was washed 5 times with PBST, and a TMD (Surmodics, Cat: TMBW-1000-01) developing solution was added, and was incubated in the dark for 15 minutes. 2N H₂SO₄ was added to terminate the color-developing reaction. OD₄₅₀ was read on a microplate reader.

[14] = biological target: T1, human CD47 protein on the cell surface; experiment: FACS on Raji cells (endogenous human CD47), n = 3
Experimental: as §1

| Molecule | Max MFI [5] | Max MFI compared with Ch-125G4m-m35 value, % [5] | also measured |
| --- | --- | --- | --- |
| negative isotype control antibody (isotype), human IgG4P | – | – | Max MFI [1]: 175 MFI; Max MFI [2]: 50 MFI; Max MFI [3]: 53 MFI; Max MFI [4]: 265 MFI |
| B1 | 3260 MFI | 72% | – |
| B2 | 4200 MFI | 92% | EC50 [6]: 3.9 nM; EC50 [7]: 1.2 nM; EC50 [8]: 0.6 nM; Kd [9]: 0.777 nM; EC50 [10]: 2.2 nM; IC50 [11]: 1.58 nM |
| B3 | 4510 MFI | 99% | – |
| B4 | 4100 MFI | 90% | – |
| B5 | 4080 MFI | 90% | – |
| B6 | 2630 MFI | 58% | – |
| B7 | 2520 MFI | 55% | – |
| B8 | 4840 MFI | 106% | – |
| B9 | 4550 MFI | 100% | – |
| B10 | – | – | EC50 [12]: 0.22 nM; IC50 [13]: 3.06 nM; EC50 [14]: 0.84 nM |
| B11 | 4120 MFI | 90% | – |
